We go through 1 substance from US20080176756A1.

In the test the target is Cyclosporine 29-56-14 combinatorial mutant clone R2-9 (scFv on yeast). The test can be described thus: competition, flow cytometry on yeast; M17 0 to 5 uM against 0.5 nM bt-CsA; physiological or selection diluent.

In the case of cyclosporine A metabolite M17 (peptide), the fold increase of IC50 compared to WT CsA 29-56-14 lay within 30 to 100 fold.
